# Legend:
# [1] = target: wild-type RAC1/2 peptide presented by HLA-A2 (peptide-loaded T2 cells) (human); assay: cell-based or functional assay
# [2] = target: HLA-A2-restricted GNAZ peptide … presented by HLA-A2 (human); assay: cell-based or functional assay
Binder,IFNγ production by TCR-transduced T cells (relative to unmodified RAC2^P29L) [1],IFNγ production of T001 TCR-transduced T cells upon coculture with peptide-loaded T2 cells (relative to PMA and ionomycin maximum) [2]
"RAC2-T002 TCR (TCR, V domains shown) V domain 1: AQSVTQLGSHVSVSEGALVLLRCNYSSSVPPYLFWYVQYPNQGLQLLLKYTTGATLVKGINGFEAEFKKSETSFHLTKPSAHMSDAAEYFCAVGANNLFFGTGTRLTVIP V domain 2: EPEVTQTPSHQVTQMGQEVILRCVPISNHLYFYWYRQILGQKVEFLVSFYNNEISEKSEIFDDQFSVERPDGSNFTLKIRSTKLEDSAMYFCASSEWRGSSYNEQFFGPGTRLTVL",35%,
"RAC2-T001 TCR (TCR, V domains shown) V domain 1: GENVEQHPSTLSVQEGDSAVIKCTYSDSASNYFPWYKQELGKGPQLIIDIRSNVGEKKDQRIAVTLNKTAKHFSLHITETQPEDSAVYFCAASMGNAGNMLTFGGGTRLMVKP V domain 2: EPEVTQTPSHQVTQMGQEVILRCVPISNHLYFYWYRQILGQKVEFLVSFYNNEISEKSEIFDDQFSVERPDGSNFTLKIRSTKLEDSAMYFCASSETSGASYEQYFGPGTRLTVT",,~30%

# Source: US20240189352A1 (MAX DELBR CK CENTRUM F R MOLEKULARE MEDIZIN IN DER …, published 2024)
